# Reference: publication PMC5602300
# Tests used:
# [1] = molecular target: taxol-stabilized microtubules (pelleting assays) (UniProt P02550); test: co-sedimentation; microtubule pelleting with increasing taxol-stabilized microtubules; ~5 nM Astrin-SKAP complex, BRB80 with 25 mM KCl, 0.5 mg/mL BSA, room temperature 10 min, glycerol cushion; α-SKAP Western blot; apparent
# [2] = molecular target: taxol-stabilized microtubules (pelleting assays) (UniProt P02550); test: co-sedimentation; as a5 with increasing microtubules, in the presence of an added Ndc80 complex (1 µM Ndc80 Bonsai; Ndc80 Broccoli); apparent
substance,measurement,setting,value
"Astrin 1–693 complex (Astrin 1–693, SKAP, LC8, MYCBP) (from UniProt Q96R06 1-693; P63167 1-89; Q99417 1-103)",Kd,[1],3200 nM
same,apparent KD in the presence of 1 µM Ndc80 Bonsai complex,[2],1400 nM
"Astrin 465–693 complex (Astrin 465–693, SKAP, LC8, MYCBP) (from UniProt Q96R06 465-693; P63167 1-89; Q99417 1-103)",Kd,[1],2200 nM
same,apparent KD in the presence of 1 µM Ndc80 Bonsai complex,[2],1700 nM
